Here are results for four substances from PMC5669894.

Assay [1] has as its target C-terminal SH3 domain of the growth factor receptor-bound protein 2 (Grb2) (UniProt P62993). Kind of assay: stopped-flow binding kinetics (intrinsic fluorescence); pseudo-first order; Grb2 SH3C constant at 0.5 μM, Gab2 503-524 peptide 1-10 μM (1-12 μM for P519A); 10°C; 25mM HEPES, 100mM potassium acetate, pH 7.5; apparent association and dissociation rate constants.
Assay [2] shares this target. Kind of assay: stopped-flow displacement kinetics (intrinsic fluorescence); pre-incubated complex of wild type Grb2 SH3C (10 μM) and Gab2 503-524 (10 μM) mixed with excess Grb2 SH3C W35Y/W36Y (100 μM and 200 μM); 25°C; 25mM HEPES, 100mM potassium acetate, pH 7.5.

By koff is commonly meant the first-order rate constant of dissociation. In general, kon refers to the rate constant with which the complex forms.

Chain of Gab2 503-524 peptide, wild type (Q9UQC2 503-524): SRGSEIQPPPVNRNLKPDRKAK

On to Gab2 503-524 peptide, variant P510A, for which the Kd in assay [1] amounted to 2.5 µM. As to Gab2 503-524 peptide, variant P512A, in assay [1], the Kd was found to be 2.5 µM.

Turning to Gab2 503-524 peptide, variant P519A, the Kd in assay [1] is 12 µM. Regarding Gab2 503-524 peptide, wild type, in assay [1], the koff stood at 53 s⁻¹ and the kon was 4.3e+07 M⁻¹ s⁻¹. In assay [2], this substance displayed a koff of 350 s⁻¹.
